Positions of bridges follow the written chain, without caps; N, C: chain ends. Non-standard residues stand in square brackets, D forms with d. No end group written: not given here. COCH2 = acetyl group that carries the bridge; NMeL = CN[C@@H](CC(C)C)C(=O)O; hLeu = CC(C)CC[C@H](N)C(=O)O; hCys = N[C@@H](CCS)C(=O)O; Orn = NCCC[C@H](N)C(=O)O; Dab = NCC[C@H](N)C(=O)O; Dap = NC[C@H](N)C(=O)O

Here are results for 22 molecules from US20260008817A1, “CYCLIC PEPTIDE OR SALT THEREOF, AND USES THEREOF” (FUJIFILM Corporation, priority 2023, published 2026).

Data set [1] addresses T1, Recombinant Human FGFR1 alpha (IIIc) Fc Chimera Protein (Homo sapiens, UniProt P11362).
T1 construct: purchased R&D systems 658-FR-050
The experiment in a line: ELISA binding affinity of enzymatically synthesized peptide to FGFR. As to conditions: ELISA luminescence signal at 10 nmol/L peptide, SEQ ID NO: 239 standardized to 1; enzyme synthesis product. A digest of the protocol:
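Cell-free PUREfrex-translated cyclic peptides (Myc/HiBiT-tagged, quantified by HiBiT luminescence) bound 3 h at room temperature to immobilized FGFR1α(IIIc)-Fc, detected with anti-Myc and chemiluminescence. FGFR-specific signal at 10 nmol/L normalized to a reference cyclic peptide and graded A–D.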
(ELISA stands for enzyme-linked immunosorbent assay.)

For data set [2], the target named is T1, Recombinant Human FGFR1 alpha (IIIc) Fc Chimera Protein. The experiment in a line: SPR binding affinity of chemically synthesized cyclic peptide to immobilized FGFR. The note with it: SPR binding amount at 10 nmol/L cyclic peptide, 25° C.; chemically synthesized product. The method, then:
The binding affinity of the cyclic peptide to FGFR was evaluated using a surface plasmon resonance (SPR) method.
The binding affinity of the chemically synthesized cyclic peptide to FGFR was evaluated by the following procedure.
A CM5 sensor chip (Cytiva, 29149603) was set in Biacore-T200 (manufactured by Cytiva) which is a surface plasmon resonance device, and an HBS-EP buffer (Cytiva, BR100826) was added as a running buffer at a flow rate of 10 μL/min to equilibrate the flow channel. Next, 70 μL of a mixed aqueous solution of 0.2 mol/L 1-(3-dimethylaminopropyl)-3-ethylcarbodiimide (EDC) and 0.05 mol/L N-hydroxysuccinimide (NHS) was added to activate the sensor chip. Then, Recombinant Human FGFR1 alpha (IIIc) Fc Chimera Protein CF (R&D systems, 658-FR-050) prepared at 50 nmol/L in an Acetate 4.5 buffer (Cytiva, BR100350) was added thereto to perform immobilization at about 5000 RU. Thereafter, the blocking treatment was performed with an ethanolamine solution. In addition, in another flow channel of the same sensor chip, blocking treatment was performed immediately after activation without immobilizing FGFR.
A cyclic peptide diluted to 10 nmol/L using HBS-EP was added to each flow channel of the FGFR-immobilized sensor chip produced above at 25° C. for 10 minutes, then HBS-EP was allowed to flow as a running buffer for 30 minutes, and the binding of the cyclic peptide to FGFR was measured. Thereafter, a regeneration treatment of removing the bound cyclic peptide was performed by repeating the flow of a regeneration liquid in which sodium chloride powder was dissolved in Glysine 1.5 (Cytiva, BR100354) to a final concentration of 0.15 mol/L for 1 minute in each flow channel twice. The binding amount of the cyclic peptide was evaluated from the difference between the measured value of Biacore-T200 in the flow channel in which FGFR was immobilized and the measured value of Biacore-T200 in the flow channel in which FGFR was not immobilised, in a case where a 10 nmol/L cyclic peptide was allowed to flow.
The binding amount of the cyclic peptide evaluated above was normalized to the binding amount of the cyclic peptide molecules per one molecule of FGFR using the molecular weights of the cyclic peptide and FGFR, and the binding affinity to FGFR was evaluated according to the following evaluation criteria. The evaluation result preferably satisfies the evaluation criteria A, B, or C.
• A: The binding amount is 0.7 molecules of the cyclic peptide/one molecule of FGFR or more. • B: The binding amount is 0.5 molecules of the cyclic peptide/one molecule of FGFR or more and less than 0.7 molecules of cyclic peptide/one molecule of FGFR. • C: The binding amount is 0.1 molecules of cyclic peptide/one molecule of FGFR or more and less than 0.5 molecules of cyclic peptide/one molecule of FGFR. • D: The binding amount is less than 0.1 molecules of the cyclic peptide/one molecule of FGFR.
(In SPR one partner is held on a chip, and binding of the other changes the refractive index at the surface.)

Data set [3] in a line: Reductive stability of cyclic peptide (DTT treatment, LC). The data set is classed as physicochemical. The note with it: residual rate after DTT treatment, room temperature, 1 hour. The method, then: The molecular stability of the cyclic peptide was evaluated by analyzing an aqueous solution of the cyclic peptide treated with a reducing agent by liquid chromatography (LC).
The reducing agent treatment was performed under the following conditions based on the concentration of glutathione contained in the cells. 25 μL of a 0.2 mg/mL cyclic peptide aqueous solution was prepared, 58.8 μL of a 12.6 mmol/L DTT aqueous solution was added to the aqueous solution, and the mixture was incubated at room temperature for 1 hour to obtain an aqueous solution of the cyclic peptide treated with a reducing agent. The DTT aqueous solution was used by diluting a 1 mol/L (+−)-dithiothreitol (DTT) solution (FUJIFILM Wako Pure Chemical Corporation, 044-33871) with water. The total area of all the peaks in LC/MS of the cyclic peptide before the reducing agent treatment was set to 100%, and the proportion of the total area of all the peaks in LC/MS of the aqueous solution of the cyclic peptide treated with the reducing agent was determined to calculate the residual rate of the cyclic peptide, and the molecular stability was evaluated according to the following evaluation criteria. The evaluation result preferably satisfies the evaluation criteria A, B, or C.
• A: The residual rate of cyclic peptide is 90% or more. • B: The residual rate of the cyclic peptide is 70% or more and less than 90% • C: The residual rate of the cyclic peptide is 50% or more and less than 70% • D: The residual rate of the cyclic peptide is less than 50%
The LC used for the evaluation of molecular stability was set to the following conditions. • LC device: Prominence series (pump, column oven, autosampler, detector) (manufactured by Shimadzu Corporation) • Detector: photodiode array detector (SPD-M20A), measurement wavelength of 280 nm • Column: TSKgel ODS-100V, inner diameter of 4.6 mm×length of 150 mm, particle diameter of 5 μm (manufactured by Tosoh Corporation) • Eluent A: solution containing 0.1% trifluoroacetic acid as solute, and solvent is 100% water • Eluent B: solution containing 0.1% trifluoroacetic acid as solute, and solvent is 100% acetonitrile • Flow rate: 1.0 mL/min • Injection amount: 25 μL • Gradient: 20% to 50%: Eluent B (0 to 15 minutes), 100%: Eluent B (15 minutes) • Column temperature: 40° C.

Data set [4] addresses Recombinant Human FGFR1 alpha (IIIc) Fc Chimera Protein, CF (R&D systems, 658-FR-050) (human) (UniProt P11362). The experiment in a line: SPR grade, peptide 10 nmol/L over FGFR1-Fc. As to conditions: scale: moleculesofcyclicpeptide/onemoleculeoffgfr.

T1 sequence (P11362 with tags, fused parts or gaps limits assumed): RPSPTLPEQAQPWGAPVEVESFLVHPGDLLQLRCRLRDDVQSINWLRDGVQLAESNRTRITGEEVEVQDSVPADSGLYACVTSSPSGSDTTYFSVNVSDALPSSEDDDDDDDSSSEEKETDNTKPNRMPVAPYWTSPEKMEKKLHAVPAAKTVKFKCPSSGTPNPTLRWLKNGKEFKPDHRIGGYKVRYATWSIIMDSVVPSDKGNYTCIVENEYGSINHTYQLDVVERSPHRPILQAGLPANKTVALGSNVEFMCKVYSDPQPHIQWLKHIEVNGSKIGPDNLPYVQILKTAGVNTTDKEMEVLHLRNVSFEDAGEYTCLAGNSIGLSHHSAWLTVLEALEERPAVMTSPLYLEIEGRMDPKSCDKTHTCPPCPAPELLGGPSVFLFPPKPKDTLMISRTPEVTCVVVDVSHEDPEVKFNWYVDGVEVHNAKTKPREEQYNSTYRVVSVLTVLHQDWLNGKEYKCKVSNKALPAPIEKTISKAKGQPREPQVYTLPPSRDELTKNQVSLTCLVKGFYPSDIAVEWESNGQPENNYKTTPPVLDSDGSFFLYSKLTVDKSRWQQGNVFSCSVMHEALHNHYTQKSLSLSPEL
Sequence of Recombinant Human FGFR1 alpha (IIIc) Fc Chimera Protein, CF (R&D systems, 658-FR-050) (human) (P11362 22-376, change not shown): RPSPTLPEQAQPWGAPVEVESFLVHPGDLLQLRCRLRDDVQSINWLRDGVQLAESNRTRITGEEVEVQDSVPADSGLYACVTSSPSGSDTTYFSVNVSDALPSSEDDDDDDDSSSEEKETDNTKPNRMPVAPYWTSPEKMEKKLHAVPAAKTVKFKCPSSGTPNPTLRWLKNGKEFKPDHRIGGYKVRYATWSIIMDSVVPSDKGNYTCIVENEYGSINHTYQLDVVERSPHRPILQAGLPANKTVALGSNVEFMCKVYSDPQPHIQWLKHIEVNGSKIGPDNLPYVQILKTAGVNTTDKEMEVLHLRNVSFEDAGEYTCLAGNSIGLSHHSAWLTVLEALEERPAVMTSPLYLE

Take “325 (ICVYTFDANAHSLDDALTK(COCH2)I; thioether 2-19 (inferred)) [compound 325]”: the “Evaluation result of binding affinity to FGFR” value (“Evaluation result … to FGFR” below) in data set [1] is reported as “A (0.7 or more)”. Consider “326 (IK(COCH2)VYTFDAHAHSLDAALTCI; thioether 2-19 (inferred)) [compound 326]”, for which the “Evaluation result … to FGFR” value in data set [1] is “B (0.5 or more and less than 0.7)”.

On to “327 (A[hCys]VWTFDRHAQEISQALHK(COCH2)VKKK; thioether 2-19) [compound 327]”, for which the “Evaluation result … to FGFR” value in data set [2] is given as “A (The binding amount is 0.7 molecules of the cyclic peptide/one molecule of FGFR or more.)”. For the same molecule, the “Evaluation result of reductive stability” value in data set [3] was “A (The residual rate of cyclic peptide is 90% or more.)”.

Consider “328 (A[hCys]VWTFDRHAQEISQALH[Orn](COCH2)VKKK; thioether 2-19) [compound 328]”, for which the “Evaluation result … to FGFR” value in data set [2] was “A (The binding amount is 0.7 molecules of the cyclic peptide/one molecule of FGFR or more.)”. The “Evaluation result of reductive stability” value in data set [3] was “A (The residual rate of cyclic peptide is 90% or more.)”. For “329 (A[hCys]VWTFDRHAQEISQALH[Dab](COCH2)VKKK; thioether 2-19) [compound 329]”, in data set [2], the “Evaluation result … to FGFR” value was “B (The binding amount is 0.5 molecules of the cyclic peptide/one molecule of FGFR or more and less than 0.7 molecules of cyclic peptide/one molecule of FGFR.)”. For the same molecule, in data set [3], the “Evaluation result of reductive stability” value is given as “A (The residual rate of cyclic peptide is 90% or more.)”.

As to “330 (A[hCys]VWTFDRHAQEISQALH[Dap](COCH2)VKKK; thioether 2-19) [compound 330]”, the “Evaluation result … to FGFR” value in data set [2] is reported as “A (The binding amount is 0.7 molecules of the cyclic peptide/one molecule of FGFR or more.)”. Besides, the “Evaluation result of reductive stability” value in data set [3] is on record as “A (The residual rate of cyclic peptide is 90% or more.)”. On to “331 (AK(COCH2)VWTFDRHAQEISQALH[hCys]VKKK; thioether 2-19) [compound 331]”, for which the “Evaluation result … to FGFR” value in data set [2] is “B (The binding amount is 0.5 molecules of the cyclic peptide/one molecule of FGFR or more and less than 0.7 molecules of cyclic peptide/one molecule of FGFR.)”. Moreover, the “Evaluation result of reductive stability” value in data set [3] is on record as “A (The residual rate of cyclic peptide is 90% or more.)”. For the molecule F[Orn](COCH2)VYTFDAHAHS[hLeu]DAALN[hCys]IKKK (thioether 2-19) [cyclic peptide SEQ ID NO: 340], in data set [4], the binding amount (SPR, molecules of cyclic peptide bound per one molecule of FGFR at 10 nmol/L peptide) fell in the range of 0.5 to 0.7.

For the molecule A[Dap](COCH2)VWTFDRHAQEISQALH[hCys]VKKK (thioether 2-19) [cyclic peptide SEQ ID NO: 334], in data set [4], the binding amount (SPR, molecules of cyclic peptide bound per one molecule of FGFR at 10 nmol/L peptide) was over 0.7. Still for that read-out and setting: then A[Dab](COCH2)VWTFDRHAQEISQALH[hCys]VKKK (thioether 2-19) [cyclic peptide SEQ ID NO: 333], with over 0.7.

With ACVWTFDRHAQEISQALHCVKKK (disulfide 2-19) [cyclic peptide SEQ ID NO: 336], in data set [4], the binding amount (SPR, molecules of cyclic peptide bound per one molecule of FGFR at 10 nmol/L peptide) was under 0.1. Same read-out and setting: next, A[hCys]VWTFDRHAQEISQALH[Dap](COCH2)VKKK (thioether 2-19) [cyclic peptide SEQ ID NO: 330]: over 0.7; A[Orn](COCH2)VWTFDRHAQEISQALH[hCys]VKKK (thioether 2-19) [cyclic peptide SEQ ID NO: 332]: over 0.7; A[hCys]VWTFDRHAQEISQALH[Dab](COCH2)VKKK (thioether 2-19) [cyclic peptide SEQ ID NO: 329]: 0.5 to 0.7.

Take FXVYTFDAHAHSLDAALNXIKKK ((Orn(propyl)) and (Hcy) homocysteine joined by a thioether ring) [cyclic peptide SEQ ID NO: 338]: the binding amount (SPR, molecules of cyclic peptide bound per one molecule of FGFR at 10 nmol/L peptide) in data set [4] lay within 0.1 to 0.5. As for F[Orn](COCH2)VYTFDAHAHSLDAALN[hCys]KKK (thioether 2-19) [cyclic peptide SEQ ID NO: 342], the binding amount (SPR, molecules of cyclic peptide bound per one molecule of FGFR at 10 nmol/L peptide) in data set [4] fell in the range of 0.1 to 0.5. On the same count and under the same terms, then F[Orn](COCH2)VYTFDAHAHS[NMeL]DAALN[hCys]IKKK (thioether 2-19) [cyclic peptide SEQ ID NO: 339], with 0.1 to 0.5. Still for that read-out and setting: then A[hCys]VWTFDRHAQEISQALHK(COCH2)VKKK (thioether 2-19) [cyclic peptide SEQ ID NO: 327], with over 0.7; and A[hCys]VWTFDRHAQEISQALH[Orn](COCH2)VKKK (thioether 2-19) [cyclic peptide SEQ ID NO: 328], with over 0.7. Regarding F[Orn](COCH2)VYTFDAHAHSLDAALN[hCys]IKKK (thioether 2-19) [cyclic peptide SEQ ID NO: 337], the binding amount (SPR, molecules of cyclic peptide bound per one molecule of FGFR at 10 nmol/L peptide) in data set [4] lay within 0.1 to 0.5. AK(COCH2)VWTFDRHAQEISQALH[hCys]VKKK (thioether 2-19) [cyclic peptide SEQ ID NO: 331]: the binding amount (SPR, molecules of cyclic peptide bound per one molecule of FGFR at 10 nmol/L peptide) in data set [4] was in the range of 0.5 to 0.7.

In the case of [Orn](COCH2)VYTFDAHAHSLDAALN[hCys]IKKK (thioether 1-18) [cyclic peptide SEQ ID NO: 341], the binding amount (SPR, molecules of cyclic peptide bound per one molecule of FGFR at 10 nmol/L peptide) in data set [4] is 0.1 to 0.5.
